Measurements as given in US20160194402A1 (ADURO BIOTECH HOLDINGS EUROPE B V, published 2016).

T1: human CD70 (cellularly expressed hCD70) (human, UniProt P32970 1-193)
T1 construct: whole, on cells; also called CHO-K1.hCD70; CHO-K1.CD70
T1 sequence (looked up): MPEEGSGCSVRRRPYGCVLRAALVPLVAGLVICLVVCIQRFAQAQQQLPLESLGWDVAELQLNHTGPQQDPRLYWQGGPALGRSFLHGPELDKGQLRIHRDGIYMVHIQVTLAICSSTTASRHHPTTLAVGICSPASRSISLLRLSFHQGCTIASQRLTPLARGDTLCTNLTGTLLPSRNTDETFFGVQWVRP


Tests used:
[1] = target: T1, human CD70 (cellularly expressed hCD70); assay: cell ELISA on CHO-K1.hCD70 cells, goat anti-mouse IgG-HRP
Procedure: Cell-based ELISA experiments using purified hCD70 antibodies were performed to determine binding activities of hCD70 to cellularly expressed hCD70. In this cell-ELISA, all incubation steps were followed by a wash step with PBST (PBS with 0.01% Tween 20). CHO-K1.hCD70 cells were seeded (40,000 cells/well) in tissue culture plates and incubated overnight at 37° C. The next day, culture medium was removed and cells were incubated for one hour with (dilutions of) purified antibodies at 37° C. Next, cells were washed with PBST and incubated for one hour at 37° C. with 1:1,000 goat-anti-mouse IgG-HRP (Southern Biotechnology, #1030-05). Subsequently, cells were washed 6 times with PBST and anti-hCD70 immunoreactivity was visualized with 100 μl TMB Stabilized Chromagen (Invitrogen, cat. no. SB02). Reactions were stopped with 100 μl 0.5 M H₂SO₄ and absorbances were read at 450 and 620 nm. […] Calculated EC₅₀, representing the concentration at which 50% of the total binding signal is observed are represented in Table 3 using 2F2 anti-hCD70 antibody (Pelicluster) as a reference.

[2] = target: recombinant hCD70 (CD70(h)-muCD8 fusion Protein, Ancell, cat. no. ANC-537-030) (mouse; human); assay: cell-based competition ELISA: biotinylated CD70(h)-muCD8 (0.5 ug/ml) binding to CHO-K1.CD27 cells, Streptavidin-HRP
[3] = target: T1, human CD70 (cellularly expressed hCD70); assay: cell ELISA on CHO-K1.hCD70 cells, goat anti-mouse IgG-HRP (reference antibody, Example 3)
[4] = target: recombinant hCD70 (CD70(h)-muCD8 fusion Protein, Ancell, cat. no. ANC-537-030) (mouse; human); assay: cell-based competition ELISA: biotinylated CD70(h)-muCD8 (0.5 ug/ml) binding to CHO-K1.hCD27 cells, Streptavidin-HRP (reference antibody, Example 3)
[5] = target: T2, recombinant hCD70 (CD70(h)-muCD8 fusion Protein, Ancell, cat. no. ANC-537-030) (mouse; human, UniProt P01731 28-196; P32970 39-193, biotin (position not stated; detected with Streptavidin-HRP, bound to streptavidin beads)); assay: cell-based competition ELISA: biotinylated CD70(h)-muCD8 (0.5 ug/ml) binding to CHO-K1.hCD27 cells, Streptavidin-HRP
T2 construct: Bought fusion protein; also called CD8-hCD70; biotin-hCD8-hCD70 recombinant protein
T2 sequence (P01731 other isoform, or with tags, fused parts or gaps): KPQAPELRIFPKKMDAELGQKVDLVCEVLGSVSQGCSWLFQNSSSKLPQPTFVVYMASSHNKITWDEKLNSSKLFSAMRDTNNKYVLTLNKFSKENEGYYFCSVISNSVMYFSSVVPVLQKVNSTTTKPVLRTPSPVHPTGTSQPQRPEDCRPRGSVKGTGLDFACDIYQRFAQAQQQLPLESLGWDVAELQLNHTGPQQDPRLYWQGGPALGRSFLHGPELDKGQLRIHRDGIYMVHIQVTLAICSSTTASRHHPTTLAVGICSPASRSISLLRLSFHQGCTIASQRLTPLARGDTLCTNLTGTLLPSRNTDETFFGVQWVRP
Procedure: Blocking properties of the purified antibodies were studied using a cell-based competition assay. The CHO-K1.CD27 assay works along the following principles: CHO-K1.CD27 cells were seeded (40,000 cells/well) in a 96-well plate and incubated overnight at 37° C. After medium removal, 50 μl recombinant hCD70 (CD70(h)-muCD8 fusion Protein (Ancell, cat. no. ANC-537-030) (0.5 μg/ml) and 50 μl of different dilutions of purified anti-hCD70 antibodies were added.
After 1 hour incubation at room temperature, the wells were washed 3 times with PBST. Next, 100 μl/well Streptavidin-HRP conjugate (BD Pharmingen, cat. no. 554066) (1:5,000) was added and cells were incubated for one hour at 37° C. After 6 final washes with PBST TMB Stabilized Chromagen (Invitrogen, cat. no. SB02) (100 μl/well) was added. The reaction was stopped by the addition of 100 μl 0.5 M H₂SO₄. Absorbencies were read at […] and 620 nm. Reference antibody: anti-hCD70, clone 2F2 (Pelicluser). […] Calculated IC₅₀ values of hCD70 antibodies and the reference 2F2 anti-hCD70 antibody, which represent the concentration at which half of the inhibition is observed, are presented in Table 3.

[6] = target: recombinant hCD70 (CD70(h)-muCD8 fusion Protein, Ancell, cat. no. ANC-537-030) (mouse; human); assay: as above

Molecule	EC50 [1] [nM]	IC50 [2] [nM]	EC50 [3] [nM]	IC50 [4] [nM]	IC50 [5] [nM]	IC50 [6] [nM]
Ki-24 (antibody)	0.035	1.5	–	–	–	–
BU69 (antibody)	0.017	0.96	–	–	–	–
2F2 (CLB70/2) (antibody)	0.014	0.4	0.13	< 2.6	–	–
hCD70.23 (antibody, IgG1, V domains shown, Mouse monoclonal purified from hybridoma supernatant) VH: QVQLQQSGPEVVRPGVSVKISCKGSGYTFTDYAMHWVKQSHAKSLEWIGVISTYNGNTNYNQKFKGKATMTVDKSSSTAYMELARLTSEDSAIYYCARDYLDYWGQGTTLTVSS VL: DIVMTQSPSSLTVTAGEKVTMSCKSSQSLLNSGNQKNYLTWYQQKPGQPPKLLIYWASTRESGVPDRFTGSGSGTDFTLTISSVQAEDLAVYYCQNDYSYPFTFGSGTKLEIK	0.17	–	–	–	> 330	–
hCD70.34 (antibody, IgG1, V domains shown, Mouse monoclonal purified from hybridoma supernatant) VH: QVQLKESGPGLVAPSQSLSITCTVSGFSLTSYGVSWVRQPPGKGLEWLGVIWGDGTTNYHSALISRLSISKDNSKSQVFLKLNSLQIDDTATYYCAKPGDYYGSSYWYFDVWGAGTTVTVSS VL: DVVLTQTPLSLPVNIGDQASISCKSTKSLLNSDGFTYLDWYLQKPGQSPQLLIYFVSNRFSGVPDRFSGSGSGTDFTLKISRVEADDLGVYYCFQSNYLPYTFGGGTKLEIK	0.21	–	–	–	109	–
hCD70.39 (antibody, part only; not given: light chain, IgG1, V domains shown, part only) VH: QGQMQQSGAELVKPGASVKLSCKTSGFTFSSNYISWLKQKPGQSLEWIAWIYAGTGGTNYNQKFTGKAQLTVDTSSSTAYIQFSSLTTEDSAIYYCARLYGYYFDYWGQGTTLTVSS	0.34	–	–	–	–	> 330
hCD70.21 (antibody, IgG1, V domains shown, Mouse monoclonal purified from hybridoma supernatant) VH: QVQLQQPGAELVKPGTSVKLSCKASGYNFTSYWINWVKLRPGQGLEWIGDIYPGSGSTNYNEKFKSKATLTVDTSSSTAYMQLSSLASEDSALYYCARGHYGSSYGFDYWGQGTTLTVSS VL: DIVLTQSPASLAVSLGQRATISCRASKSVSTSGYSYMHWYQQKPGQPPKLLIYLASNLESGVPARFSGSGSGTDFTLNIHPVEEEDAATYYCQHSRELPLTFGAGTKLELK	0.26	–	–	–	> 330	–
hCD70.36 (antibody, IgG1, V domains shown, Mouse monoclonal purified from hybridoma supernatant) VH: EVQLQQSGPELVKTGASVKISCKASGYSFTGYYMHWVKQSHGKSLEWIGYISCYNGATSYNQKFKGKATFTVDTSSSTAYMQFNSLTSEDSAVYYCARGGNWDVEYAMDYWGQGTSVTVSS VL: DIVLTQSPASLAVSLGQRATISCRASKSVSTSGYSYMHWYQQKPGQPPKLLIYLASNLESGVPARFSGSGSGTDFTLNIHPVEEEDAATYYCQHSRELPFTFGSGTKLEIK	0.3	–	–	–	> 330	–
hCD70.32 (antibody, IgG1, V domains shown, Mouse monoclonal purified from hybridoma supernatant) VH: QVQLQQSGDDLVKPGASVKLSCKASGYTFTSYWINWIKQRPGQGLEWIGRIAPGSGSTYYSKIFKGKATLTVDTSSSTAYIQLSSLSSEDSAVYFCSRGDYGDYWGQGTTLTVSS VL: DIVMTQSHKFMSTSVGDRVSITCKASQDVGTAVAWYQQKPGESPKLLIYWASTRHTGVPDRLTGSGSGTDFTLTISNVHSEDLADYFCQQYSGYPLTFGDGTKLEL	0.15	–	–	–	76	–
